Laboratory results: article PMC6555802

Target: CHML (fluorescence titration) (human) (UniProt P26374)
Test: other fluorescence titration; fluorescence titration assay (Supplementary Fig. 8); conditions not stated in the text shown

Chain of CHML (fluorescence titration) (human) (P26374 whole entry): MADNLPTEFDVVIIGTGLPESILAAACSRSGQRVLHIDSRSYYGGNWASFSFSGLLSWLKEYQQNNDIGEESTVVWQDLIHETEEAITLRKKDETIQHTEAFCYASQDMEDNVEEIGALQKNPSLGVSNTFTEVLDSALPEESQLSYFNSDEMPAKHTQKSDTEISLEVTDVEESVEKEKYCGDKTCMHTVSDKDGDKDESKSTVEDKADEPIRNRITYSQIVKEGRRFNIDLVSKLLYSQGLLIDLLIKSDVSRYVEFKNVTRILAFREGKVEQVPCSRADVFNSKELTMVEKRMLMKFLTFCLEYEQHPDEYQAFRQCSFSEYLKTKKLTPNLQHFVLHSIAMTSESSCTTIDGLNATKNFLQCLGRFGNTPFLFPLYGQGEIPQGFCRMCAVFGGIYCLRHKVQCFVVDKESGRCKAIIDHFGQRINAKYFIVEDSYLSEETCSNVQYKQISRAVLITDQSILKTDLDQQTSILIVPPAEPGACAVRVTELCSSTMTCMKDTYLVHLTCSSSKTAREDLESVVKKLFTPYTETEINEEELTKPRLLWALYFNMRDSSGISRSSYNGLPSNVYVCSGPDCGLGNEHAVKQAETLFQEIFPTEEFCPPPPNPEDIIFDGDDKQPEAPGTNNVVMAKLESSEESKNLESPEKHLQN

Kd: 7.84 nM
Substance: Rab7A (fluorescence titration) (from UniProt P51149 1-207) (natural protein)
